Legend:
[1] = test system: C[C@H](O)[C@H](O)[C@H]1CNc2nc(N)[nH]c(=O)c2N1; assay: purified protein, by the assay type
[2] = test system: COCC1CNc2nc(N)[nH]c(=O)c2N1; assay: Tyrosine hydroxylase cofactor assay; type: biochemical
Method: Tyrosine hydroxylase was partially purified through a 25-45% ammonium sulfate fraction. […] The enzyme was assayed by a modification of the method of Nagatsu, T., Levitt, M., and Udenfriend, S. (Anal. Biochem. 9, 122, (1964)) where the Dowex chromatography step was replaced by a charcoal extraction.

Tyrosine hydroxylase (Homo sapiens), sequence (chain, as listed by the source): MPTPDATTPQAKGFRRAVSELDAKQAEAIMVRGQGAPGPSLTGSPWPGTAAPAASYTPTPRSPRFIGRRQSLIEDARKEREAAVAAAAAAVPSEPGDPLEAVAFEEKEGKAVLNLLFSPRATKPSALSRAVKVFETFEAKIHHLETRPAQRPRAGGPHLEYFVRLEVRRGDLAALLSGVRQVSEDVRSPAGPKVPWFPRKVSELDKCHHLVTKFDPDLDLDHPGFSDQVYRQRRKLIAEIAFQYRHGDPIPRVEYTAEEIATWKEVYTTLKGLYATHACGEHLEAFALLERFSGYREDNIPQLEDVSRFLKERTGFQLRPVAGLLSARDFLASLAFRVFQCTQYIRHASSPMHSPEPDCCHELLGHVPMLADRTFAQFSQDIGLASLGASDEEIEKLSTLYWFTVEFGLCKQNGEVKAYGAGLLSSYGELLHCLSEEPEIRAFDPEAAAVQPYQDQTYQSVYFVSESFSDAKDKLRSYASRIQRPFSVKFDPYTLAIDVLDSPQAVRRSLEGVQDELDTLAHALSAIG

Substance Tyrosine hydroxylase (Homo sapiens) has a Km [1] of 110 µM and a Km [2] of 65 µM.

— patent US4587340A, “Biopterin analogs” (Burroughs Wellcome Co., priority 1984, dated 1986)
